One block for each binder: values may come before it.
Assays:
[1] = biological target: human PD-1 expressed on cells (Jurkat.hPD-1.IL2luc clone DT999A1; CD4+ T cell clone BC4-49) (human, UniProt Q15116 25-288); test: cell-based or functional assay
[2] = biological target: T1, human LAG-3 expressed by the CD4+ T-cell clone BC4-49 (human, UniProt P18627 23-525); test: T-cell clone + JY.hPD-L1 co-culture (conclusion stated from IFNγ read-out)
T1 construct: whole, on cells
T1 sequence (looked up): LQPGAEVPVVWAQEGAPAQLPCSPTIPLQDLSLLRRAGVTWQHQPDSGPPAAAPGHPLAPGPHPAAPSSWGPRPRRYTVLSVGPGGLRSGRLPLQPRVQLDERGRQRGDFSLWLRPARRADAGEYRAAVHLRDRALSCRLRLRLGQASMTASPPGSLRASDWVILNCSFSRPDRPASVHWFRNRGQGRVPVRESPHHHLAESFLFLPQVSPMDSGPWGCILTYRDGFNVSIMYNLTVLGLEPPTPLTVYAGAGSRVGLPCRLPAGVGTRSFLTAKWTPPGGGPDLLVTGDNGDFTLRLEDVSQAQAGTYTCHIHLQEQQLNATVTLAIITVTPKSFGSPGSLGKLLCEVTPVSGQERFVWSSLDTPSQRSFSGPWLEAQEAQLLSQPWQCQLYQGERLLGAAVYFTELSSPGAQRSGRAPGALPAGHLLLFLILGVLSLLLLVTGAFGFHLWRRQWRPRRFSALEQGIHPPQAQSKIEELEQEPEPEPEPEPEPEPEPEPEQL
Method: The pellets were resuspended into single cell suspension in Yssel's medium. […] Fifty microliters of T cell suspension at a density of 4×10⁵ cells/mL was added into wells containing titrated antibodies. The antibody/T cell mixture was pre-incubated for 1 hour in an incubator at 37° C. with 5% CO₂. Human PD-L1 transgene expressing JY cells (JY.hPD-L1) were used in co-cultures to provide allo-specific antigens. […] The pellet was resuspended with Yssel's medium, and filtered with 40 μm cell strainer before plating. Fifty μL/well of JY.hPD-L1 suspension at a concentration of 2×10⁵ cells/mL was dispensed into pre-incubated antibody-T cells mixture, with T cell to JY.hPD-L1 cell ratio at 2:1. All conditions were run in duplicates. After approximately 3-day culture, 100 μL of supernatant per well was harvested for human IFNγ quantification. Human IFNγ ELISA was performed to assess IFNγ level on pooled supernatant from duplicates by using hIFNγ QUANTIKINE kit (R&D Systems, SIF50). Assays were run following the standard protocol provided by manufacturer. EC50 values were calculated using the [sequence] prism software.

[3] = biological target: T2, polyhistidine-tagged human PD-1 (hPD1-His, 98AFK) (human, UniProt Q15116 25-167, limits assumed); test: SPR solution affinity; reference Humanized 08A IgG4 S61N (98AIO)
T2 construct: also called human PD1-His; Human PD-1-His; not shown: polyhistidine tag
T2 sequence (Q15116 25-167 limits assumed): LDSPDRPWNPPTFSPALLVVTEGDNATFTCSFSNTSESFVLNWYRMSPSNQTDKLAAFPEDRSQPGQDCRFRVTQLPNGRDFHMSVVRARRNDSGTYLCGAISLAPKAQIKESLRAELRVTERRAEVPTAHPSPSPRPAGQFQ
Method: The titration series were incubated for 16-24 hours to reach equilibrium at room temperature. The unbound sites were measured using a BIAcore chip immobilized with antigen in a competition mode where SPR signal detected corresponded to unbound antibody.
Free, unbound antibodies concentrations were measured as proportional to RU after 120 seconds (for 500 pM mAb series) or 400 seconds (for 100 pM mAb series) of injection at 10 μL/min.
Data analyses were performed using KINEXA Pro Version 1.02 (Sapydyne) where RUs were normalized and plotted against concentrations.

Chain of human PD-1 expressed on cells (Jurkat.hPD-1.IL2luc clone DT999A1; CD4+ T cell clone BC4-49) (Q15116 25-288): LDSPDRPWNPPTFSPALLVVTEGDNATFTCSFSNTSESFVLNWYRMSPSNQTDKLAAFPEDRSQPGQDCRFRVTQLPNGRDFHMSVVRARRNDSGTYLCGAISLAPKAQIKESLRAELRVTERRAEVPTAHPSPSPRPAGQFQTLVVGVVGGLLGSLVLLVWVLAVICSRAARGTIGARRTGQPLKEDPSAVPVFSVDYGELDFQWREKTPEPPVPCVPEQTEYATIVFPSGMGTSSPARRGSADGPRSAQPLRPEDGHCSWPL

B1: Anti-PD-1/LAG3 bispecific antibody 90ASU (bispecific antibody, human IgG1, kappa, L234A L235A)
heavy 1: not shown
light 1: DIVMTQTPLSLSVTPGQPASISCRASKSVSTSGFSYLHWYLQKPGQPPQLLIFLASNLESGVPDRFSGSGSGTDFTLKISRVEAEDVGVYYCQHSWELPLTFGQGTKLEIKRTVAAPSVFIFPPSDERLKSGTASVVCLLNNFYPREAKVQWKVDNALQSGNSQESVTEQDSKDSTYSLSSRLTLSKADYEKHKVYACEVTHQGLSSPVTKSFNRGEC
heavy 2: QMQLVQSGPEVKKPGTSVKVSCKASGYTFTDYNVDWVRQARGQRLEWIGDINPNDGGTIYAQKFQERVTITVDKSTSTAYMELSSLRSEDTAVYYCARNYRWFGAMDHWGQGTTVTVSSASTKGPSVFPLAPSSKSTSGGTAALGCLVKDYFPEPVTVSWNSGALTSGVHTFPAVLQSSGLYKLSSVVTVPSSSLGTQTYICNVNHKPSNTKVDKKVEPKSCDKTHTCPPCPAPEAAGGPSVFLFPPKPKDTLMISRTPEVTCVVVSVSHEDPEVKFNWYVDGVEVHNAKTKPREEQYNSTYRVVSVLTVLHQDWLNGKEYKCKVSNKALPAPIEKTISKAKGQPREPQVYVLPPSRDELTKNQVSLLCLVKGFYPSDIAVEWESNGQPENNYLTWPPVLDSDGSFFLYSKLTVDKSRWQQGNVFSCSVMHEALHNHYTQKSLSLSPG
light 2: DIVMTQTPLSLSVTPGQPASISCKASQSLDYEGDSDMNWYLQKPGQPPQLLIYGASNLESGVPDRFSGSGSGTDFTLKISRVEAEDVGVYYCQQSTEDPRTFGGGTKVEIKRTVAAPSVFIFPPSDEELKSGTATVVCLLNNFYPREAKVQWKVDNALQSGNSQESVTEQDSKDSTYSLSSYLELSKADYEKHKVYACEVTHQGLSSPVTKSFNRGEC
notes: also called Humanized x [PD-1_H]; [LAG3_H]; BsAb (hu08A S61N G56A arm / 22D2 arm) IgG1/Kappa
- AVG EC50, IL-2 luciferase reporter (Jurkat.hPD-1.IL2luc + THP-1.PD-L1 assay) [1]: 2.54 nM
- binding result [2]: binds

B2: Anti-PD-1/LAG3 bispecific antibody 33ARK (bispecific antibody, human IgG1, kappa, L234A L235A)
heavy 1: EVQLVQSGAEVKKPGASVKVSCKASGYTFTSYYLYWVREAPGQGLEWIGGVNPSNGGTNFNEKFKSRVTLTVDTSISTAYMELSRLRSDDTAVYYCTRRDSNYDGGFDYWGQGTTVTVSSASTKGPSVFPLAPSSKSTSGGTAALGCEVTDYFPEPVTVSWNSGALTSGVHTFPAVLESSGLYSLSSVVTVPSSSLGTQTYICNVNHKPSNTKVDKKVEPKSCDKTHTCPPCPAPEAAGGPSVFLFPPKPKDTLMISRTPEVTCVVVSVSHEDPEVKFNWYVDGVEVHNAKTKPREEQYNSTYRVVSVLTVLHQDWLNGKEYKCKVSNKALPAPIEKTISKAKGQPREPQVYVLPPSRDELTKNQVSLLCLVKGFYPSDIAVEWESNGQPENNYLTWPPVLDSDGSFFLYSKLTVDKSRWQQGNVFSCSVMHEALHNHYTQKSLSLSPG
light 1: DIVMTQTPLSLSVTPGQPASISCRASKSVSTSGFSYLHWYLRKPGQPPQLLIFLASNLESGVPDRFSGSGSGTDFTLKISRVEAEDVGVYYCQHSWELPLTFGQGTKLEIKRTVAAPSVFIFPPSDERLKSGTASVVCLLNNFYPREAKVQWKVDNALQSGNSKESVTEQDSKDSTYSLSSRLTLSKADYEKHKVYACEVTHQGLSSPVTKSFNRGEC
heavy 2: not shown
light 2: DIVMTQTPLSLSVTPGQPASISCKASQSLDYEGDSDMNWYLEKPGQPPQLLIYGASNLESGVPDRFSGSGSGTDFTLKISRVEAEDVGVYYCQQSTEDPRTFGGGTKVEIKRTVAAPSVFIFPPSDEELKSGTASVVCLLNNFYPREAKVQWKVDNALQSGNSEESVTEQDSKDSTYSLSSTLELSKADYEKHKVYACEVTHQGLSSPVTKSFNRGEC
- AVG EC50, IL-2 luciferase reporter (Jurkat.hPD-1.IL2luc + THP-1.PD-L1 assay) [1]: 3.12 nM

B3: Anti-PD-1/LAG-3 bispecific antibody (BsAb) 18ASS (bispecific antibody, human IgG1, kappa, L234A L235A)
heavy 1: not shown
light 1: DIVMTQTPLSLSVTPGQPASISCRASKSVSTSGFSYLHWYLQKPGQPPQLLIFLSKYRSSGVPDRFSGSGSGTDFTLKISRVEAEDVGVYYCSQAYHLPLTFGQGTKLEIKRTVAAPSVFIFPPSDERLKSGTASVVCLLNNFYPREAKVQWKVDNALQSGNSQESVTEQDSKDSTYSLSSRLTLSKADYEKHKVYACEVTHQGLSSPVTKSFNRGEC
heavy 2: QMQLVQSGPEVKKPGTSVKVSCKASGYTFTDYNVDWVRQARGQRLEWIGDINPNDGGTIYAQKFQERVTITVDKSTSTAYMELSSLRSEDTAVYYCARNYRWFGAMDHWGQGTTVTVSSASTKGPSVFPLAPSSKSTSGGTAALGCLVKDYFPEPVTVSWNSGALTSGVHTFPAVLQSSGLYKLSSVVTVPSSSLGTQTYICNVNHKPSNTKVDKKVEPKSCDKTHTCPPCPAPEAAGGPSVFLFPPKPKDTLMISRTPEVTCVVVSVSHEDPEVKFNWYVDGVEVHNAKTKPREEQYNSTYRVVSVLTVLHQDWLNGKEYKCKVSNKALPAPIEKTISKAKGQPREPQVYVLPPSRDELTKNQVSLLCLVKGFYPSDIAVEWESNGQPENNYLTWPPVLDSDGSFFLYSKLTVDKSRWQQGNVFSCSVMHEALHNHYTQKSLSLSPG
light 2: DIVMTQTPLSLSVTPGQPASISCKASQSLDYEGDSDMNWYLQKPGQPPQLLIYGASNLESGVPDRFSGSGSGTDFTLKISRVEAEDVGVYYCQQSTEDPRTFGGGTKVEIKRTVAAPSVFIFPPSDEELKSGTATVVCLLNNFYPREAKVQWKVDNALQSGNSQESVTEQDSKDSTYSLSSYLELSKADYEKHKVYACEVTHQGLSSPVTKSFNRGEC
- AVG EC50, IL-2 luciferase reporter (Jurkat.hPD-1.IL2luc + THP-1.PD-L1 assay) [1]: 0.55 nM

Now from value to binder:

- AVG EC50, IL-2 luciferase reporter (Jurkat.hPD-1.IL2luc + THP-1.PD-L1 assay) [1]: 3.32 nM
B4: Humanized x [PD-1_H] Fab (08A/HuPD1A-11 S61N WT) IgG4/Kappa (00APE) (Fab, V domains shown)
VH: EVQLVQSGAEVKKPGASVKVSCKASGYTFTSYYLYWVRQAPGQGLEWIGGVNPSNGGTNFNEKFKSRVTLTVDTSISTAYMELSRLRSDDTAVYYCTRRDSNYDGGFDYWGQGTTVTVSS
VL: DIVMTQTPLSLSVTPGQPASISCRASKSVSTSGFSYLHWYLQKPGQPPQLLIFLASNLESGVPDRFSGSGSGTDFTLKISRVEAEDVGVYYCQHSWELPLTFGQGTKLEIKR

- KD (REF)/KD [3]: 13
B5: Humanized x [PD-1_H] mAb (08A/HuPD1A-11 S61N CP-affinity matured Fab 100 (VH H3G9 (D100L N102H) G56A/VL L28D1) L234A L235A D265S) IgG1/Kappa (25AVE) (antibody, V domains shown)
VH: EVQLVQSGAEVKKPGASVKVSCKASGYTFTSYYLYWVRQAPGQGLEWIGGVNPSNAGTNFNEKFKSRVTLTVDTSISTAYMELSRLRSDDTAVYYCTRRLSHYDGGFDYWGQGTTVTVSS
VL: DIVMTQTPLSLSVTPGQPASISCRASKSVSTSGFSYLHWYLQKPGQPPQLLIFLSKYRSSGVPDRFSGSGSGTDFTLKISRVEAEDVGVYYCSQAYHLPLTFGQGTKLEIKR
notes: also called Humanized 08A IgG4 Fab 100 S61N G56A

— patent US20210032342A1 (Merck Sharp & Dohme, published 2021)
